What was measured:
Format in all cases: biochemical
[1] = Assay for PVA-oxidizing activity (hydrogen peroxide formation, titanium reagent, A410)
Method: As shown in the above (1), the PVA-degrading enzyme of the present invention has an PVA-oxidizing activity, i.e., an activity of catalyzing the reaction of oxidizing PVA as substrate and forming hydrogen peroxide. For example, the PVA-oxidizing activity can be measured by the following method.
To 0.5 mL of a substrate solution prepared by dissolving PVA (Reagent grade polyvinyl alcohol, polymerization degree: 2,000, Nacalai Tesque Inc., Kyoto, Japan) into 100 mM sodium phosphate buffer (pH 7.0) to give a concentration of 2% (w/v), 15 µL of 2% (w/v) of sodium azide solution was added, and then 0.5 mL of an enzyme solution is further added and reacted with shaking at 27° C. for 60 min. After the 60 min-reaction, the reaction was stopped by mixing 0.32 mL of the reaction mixture to 0.8 mL of a titanium reagent, and the yellow color, produced by reacting hydrogen peroxide formed by the enzyme reaction and the titanium reagent, was measured by measuring the absorbance at 410 nm (A410) as an index. Separately, the enzyme solution was added to the substrate solution, and the resulting mixture is immediately mixed with the titanium reagent. The resulting mixture was similarly measured its color and the value was used as the value at the reaction zero minutes. Then, the amount of the formed hydrogen peroxide is determined and the PVA-oxidizing activity is calculated based on the following formula. It is known that the absorbance at 410 nm (A410) increases by “1” when 3.65 […]mole/mL of hydrogen peroxide is formed. Therefore, in the following Formula 1, the coefficient of “3.65” has been multiplied. One unit of the PVA-oxidizing activity is defined as the amount of enzyme that forms 1 […]mole of hydrogen peroxide per min under the above conditions. Titanium reagent is prepared by diluting 5% titanium sulfate (IV) solution, commercialized by Nacalai Tesque Inc., Kyoto, Japan, 25-fold with 10% (w/w) sulfuric acid.

[2] = PVA-degrading (viscosity-reducing) activity; details: at each purification step
Method: While, activity as a PVA-degrading enzyme can be measured, for example, by measuring the viscosity reduction of a PVA solution, caused by the degradation of PVA, as an index using the following method.
To 0.5 mL of a substrate solution prepared by dissolving PVA (Reagent grade polyvinyl alcohol, polymerization degree: 2,000, Nacalai Tesque Inc., Kyoto, Japan) into 100 mM sodium phosphate buffer (pH 7.0) to give a concentration of 2% (w/v), 15 µL of 2% (w/v) of sodium azide solution was added, and then 0.5 mL of an enzyme solution is further added and reacted with shaking at 27° C. for 60 min. After the reaction, 0.6 mL of the reaction mixture was withdrawn and its viscosity was measured using a Cone plate-type viscometer (“DV-II+Pro”, Brookfield Co., Ltd.) at 30° C. Separately, the enzyme solution was added to the substrate solution and the viscosity was measured immediately, and the viscosity was used as that at zero-min reaction. The PVA-degrading activity was calculated based on the following formula. One unit of the PVA-degrading activity was defined as the amount of enzyme that causes a 10%-reduction of relative viscosity per min under the above conditions. […]

[3] = Degradation of PVA by PVA-degrading enzyme: time course of viscosity of reaction mixture; details: for Viscosity of reaction mixture: 35° C.
Method: Using the purified enzyme preparation of PVA-A obtained by the method of Experiment 2, the enzyme preparations varying the amount of enzyme were allowed to act on substrate solutions varying in PVA concentration, and the time course of the degradation of PVA was investigated by measuring the reduction of viscosity of the reaction mixture.
PVA as a substrate (Reagent grade polyvinyl alcohol, polymerization degree: 2,000, commercialized by Nacalai Tesque Inc., Kyoto, Japan), 50 mM sodium phosphate buffer (pH 7.0), and the purified enzyme solution of PVA-A dissolved in the same buffer were mixed, and the reaction mixtures (volume: 1 mL) with the final concentration of PVA of 1%, 4% or 10% (w/v), and the amount of PVA-A per 1 g-PVA of 1 (or 1.25), 5 or 10 units as PVA-oxidizing activity was prepared. Then, those reaction mixtures in plastic tubes were reacted with shaking at 160 rpm at 35° C. for 1, 4 or 20 hours. In each PVA concentration, a reaction mixture prepared by substituting the enzyme solution to 50 mM phosphate buffer (pH 7.0) was used as control (the amount of enzyme: zero unit). To viscosity measurement using “DV-II+Pro”, a cone-plate viscometer manufactured by Brookfield, Boston, USA, 0.6 mL of a reaction mixture obtained by reacting under each condition was subjected.

[4] = Gel filtration HPLC of PVA degradation products (molecular weight); details: 10 units of the enzyme on 1% (w/v) PVA for 20 hours; substrate PVA Mw about 10.6×10^4
Method: While, the molecular weight of the degraded product of PVA was analyzed by conventional gel filtration HPLC for a reaction mixture obtained by allowing 10 units of the enzyme to act on 1% (w/v) PVA solution for 20 hours. Gel filtration HPLC was carried out using the following conditions: • Column: “TSKgel […]-4000” (manufactured by Tosoh Corporation, Tokyo, Japan) • (Two columns were tandemly connected.); • Eluent: 50 mM phosphate buffer eluent (pH7.0); • Column temperature: 40° C.; • Flow rate: 0.5 mL/min; • Detector: “RID-20A”, a differential refractometer, manufactured by Shimadzu Corporation, Kyoto, Japan.
The molecular weights of PVA and the degradation products of PVA were respectively calculated based on a calibration curve of molecular weights prepared by subjecting pullulan standards for molecular weight measurement, commercialized by Hayashibara Co., Ltd., Okayama, Japan, to gel filtration HPLC in the same manner. The gel filtration HPLC chromatogram of the reaction mixture (symbol “b” in FIG. 11) is shown in FIG. 11 in comparison with that of PVA used as a substrate (symbol “a” in FIG. 11).

B1: PVA-A: purified PVA-degrading hybrid enzyme from Pseudomonas sp. VT1B strain, amino acid sequence of SEQ ID NO: 2 (protein, listed as Pseudomonas sp.)
chain: AENWPMFGKNYENTRATSDTQISTANISTLNVVRRTTDGGITGTPTVVDGVAYYSDFSGYVKAVRVSDGVVLWRVRPQTTMLSPSPFVTADTVYVAGNNSYVYALNRANGAVRWTTQIETSPNSRISSSPIVVGNILIIGTGSYQVFLPATPMFRGRVAFLNATTGAILPYSTNMCPSASCGGGISVWSTAAIDESTRTGYIGTGQAYRDPAGPYSDALVAFNIDTGAIRWARQFLANDVYQLGGTLRYDYDVGAAPNLFVANGQRMVGVGGKDGTYRAFNRDTGAPIWNTPVGRGSAIGGVMQSTAYGDGRIYVTSNTSTIGSGRNDPVPATAEASALDAATGAPVWIRQLDAGGFGGVAYANGLMYASTWDGRLRVFNAANGNIVREVQVSPSRGAYVPAPTDGFPNGSAGGPVVYGNRVLMGYGWTWVLNINGGLTTMEATVGGGASQTVTLASSSDTYVQSGTPTTNYAYDVNLLARLADAEGLTRASFLQFPLTAVPAGTITSARLRLYGRHDAPTGTGQSVSVWPGTKTTTWSGPNVTYNNSSTETGVDFYATSSIATATVGITPQYYEWNVTDYVASRRSLGHATFGVAVNSAHQYRVTLNSADNTANRPELVVTVSGGTGSQLPGSCPSGFTARAGVNQGFMHNGVARGFVLNVPANVSTPRPVFVSLTGSVESTNENLGARGGAGALNNDGFLVIGPVRRCAGQDPNGAGTSVNGGTCNQAGTGGWNWNPWNEGRVFAAAGDPWKTAEGPDSQFLEAVVRCVAASYPVDSTRMYLGGISSGATMTHRALLFNSDFWAGGLPLSGEWYVSQDNGTAYPGADEFAARRQAVINNPTKIFQGRVGPLPLPATQSPMIVISMWGGANDIWYCGSTLCADYRPSTQAASNYFSALPNVVHVACSSSHGHQWPTQNRAAFNTWAATTLASHPKGTPASSFVLPPPPAGYSCRVGRYTDHYSGT
- Specific activity ([1]; PVA-oxidizing activity per mg protein at each purification step): 3.2 U/mg
- Total Activity (PVA-oxidizing activity) ([1]; at each purification step, from 4 L culture supernatant): 5.4 U
- Total PVA-Degrading Activity (Viscosity-reducing Activity) [2]: 8.2 U
- Viscosity of reaction mixture ([3]; PVA 1% (w/v), 1.25 U/g-PVA, 0 hour): 2.7 mPa·s
- Viscosity of reaction mixture ([3]; PVA 1% (w/v), 1.25 U/g-PVA, 1 hour): 2.3 mPa·s
- Viscosity of reaction mixture ([3]; PVA 1% (w/v), 1.25 U/g-PVA, 4 hours): 1.7 mPa·s
- Viscosity of reaction mixture ([3]; PVA 1% (w/v), 1.25 U/g-PVA, 20 hours): 1.4 mPa·s
- Viscosity of reaction mixture ([3]; PVA 1% (w/v), 5 U/g-PVA, 0 hour): 2.5 mPa·s
- Viscosity of reaction mixture ([3]; PVA 1% (w/v), 5 U/g-PVA, 1 hour): 1.6 mPa·s
- Viscosity of reaction mixture ([3]; PVA 1% (w/v), 5 U/g-PVA, 4 hours): 1.3 mPa·s
- Viscosity of reaction mixture ([3]; PVA 1% (w/v), 5 U/g-PVA, 20 hours): 1.2 mPa·s
- Viscosity of reaction mixture ([3]; PVA 1% (w/v), 10 U/g-PVA, 0 hour): 2.7 mPa·s
- Viscosity of reaction mixture ([3]; PVA 1% (w/v), 10 U/g-PVA, 1 hour): 1.4 mPa·s
- Viscosity of reaction mixture ([3]; PVA 1% (w/v), 10 U/g-PVA, 4 hours): 1.3 mPa·s
- Viscosity of reaction mixture ([3]; PVA 1% (w/v), 10 U/g-PVA, 20 hours): 1.2 mPa·s
- Viscosity of reaction mixture ([3]; PVA 4% (w/v), 1 U/g-PVA, 0 hour): 34.0 mPa·s
- Viscosity of reaction mixture ([3]; PVA 4% (w/v), 1 U/g-PVA, 1 hour): 35.6 mPa·s
- Viscosity of reaction mixture ([3]; PVA 4% (w/v), 1 U/g-PVA, 4 hours): 18.6 mPa·s
- Viscosity of reaction mixture ([3]; PVA 4% (w/v), 1 U/g-PVA, 20 hours): 6.6 mPa·s
- Viscosity of reaction mixture ([3]; PVA 4% (w/v), 5 U/g-PVA, 1 hour): 30.3 mPa·s
- Viscosity of reaction mixture ([3]; PVA 4% (w/v), 5 U/g-PVA, 4 hours): 11.9 mPa·s
- Viscosity of reaction mixture ([3]; PVA 4% (w/v), 5 U/g-PVA, 20 hours): 3.7 mPa·s
- viscosity after reaction relative to the start of the reaction ([3]; PVA 4% (w/v), 5 units, 20 hours): about 1/10
- Viscosity of reaction mixture ([3]; PVA 10% (w/v), 1 U/g-PVA, 0 hour): 2530 mPa·s
- Viscosity of reaction mixture ([3]; PVA 10% (w/v), 1 U/g-PVA, 1 hour): 1490 mPa·s
- Viscosity of reaction mixture ([3]; PVA 10% (w/v), 1 U/g-PVA, 4 hours): 1550 mPa·s
- Viscosity of reaction mixture ([3]; PVA 10% (w/v), 1 U/g-PVA, 20 hours): 873 mPa·s
- Viscosity of reaction mixture ([3]; PVA 10% (w/v), 5 U/g-PVA, 1 hour): 1520 mPa·s
- Viscosity of reaction mixture ([3]; PVA 10% (w/v), 5 U/g-PVA, 4 hours): 769 mPa·s
- Viscosity of reaction mixture ([3]; PVA 10% (w/v), 5 U/g-PVA, 20 hours): 231 mPa·s
- viscosity after reaction relative to the start of the reaction ([3]; PVA 10% (w/v), 5 units per 1 g of PVA, 20 hours): about 1/10
- weight average molecular weight (Mw) of the degraded products of PVA [4]: about 4,400
